Sequences and labels used below:
B1: Hairpin Ribozyme (parent)
chain: GUCCUCUUUCACGUGCGCGUGAAAGAGAGAAGUGAACCAGAGAAACACACGUUGUGGUAUAUUACCUGGUA

In the series the parent is B1. The series can be described thus: self-cleavage, relative activity (ratio to wild type); higher = more cleavage; co-transcriptional.
Regarding G25C C46U, the self-cleavage was determined as 0.0896. In the case of G25U C37A it was 0.261; in that of G25A C66U, 0.239; in that of G25C U62C, 0.252. In the case of G25C U62G it was 0.0816; in that of A26G C37A, 0.268.

As to G25C A36G, the self-cleavage came out at 0.497. In the case of G25C A36C it was 0.539. In the case of G25C G34U, the self-cleavage came to 1.25. Then G25C G34A, with 0.821.

As to A26U C66U, the self-cleavage worked out at 0.276. As for A26U C66A, the self-cleavage turned out to be 0.146.

As to A26G G57U, the self-cleavage came to 0.252. In the case of G25C A71U it was 0.476; in that of A24U A71U, 0.783; in that of G25C C65G, 0.174. In the case of G25C C65A it was 0.382; in that of A24G G69A, 0.392; in that of G25C A61U, 0.213. For G25A C48G, the self-cleavage was determined as 0.0903. Then G25U C66U, with 0.315; and A24U C37A, with 0.304; and A26U A64C, with 0.15. As to A26U A47U, the self-cleavage was determined as 0.0699. Consider A26G A43U, for which the self-cleavage is 0.121. On to A24U C50G, for which the self-cleavage came out at 0.341. Then G25U G54C, with 0.241. In the case of G25C G56A it was 0.149. Then A26C C65U, with 0.256; and A26C C65A, with 0.614; and A26U A36C, with 0.343. Regarding A26U A36U, the self-cleavage was found to be 0.414. On to G25U A49U, for which the self-cleavage amounted to 0.136.

Turning to A26G U70G, the self-cleavage is 0.81.

Turning to A26G U70A, the self-cleavage is 1.06. Take G25A A61C: the self-cleavage amounted to 0.196. In the case of A24G G68U it was 0.273. With A24G G68C, the self-cleavage came to 0.232. As for A24G G54C, the self-cleavage came to 0.458. Take G25U U58G: the self-cleavage was 0.439. In the case of G25U G68C it was 0.243.

As for G25U G68U, the self-cleavage amounted to 0.159. Then A26C A47C, with 0.199; and G25U A59U, with 0.237; and A26C A45U, with 0.182. In the case of A26C A45G it was 0.136; in that of A24U U52G, 0.744.

Consider A24U U52A, for which the self-cleavage came out at 0.925. In the case of A26U C48G, the self-cleavage was determined as 0.117. Consider A24U G40C, for which the self-cleavage amounted to 0.116. Then A24U U33C, with 0.0916; and A26G A45C, with 0.135; and A24U G51C, with 0.805. Then A26G G68A, with 0.309.

A24U A26U: the self-cleavage turned out to be 0.443.

Turning to A24U A26G, the self-cleavage came out at 0.79. Then A24U A26C, with 0.575; and A26G C65A, with 0.702; and A26G C50G, with 0.211. Then A26G A36C, with 0.474; and A26G A36U, with 0.326; and A24U G25A, with 0.219. In the case of A24U G25C it was 0.385; in that of A24G U53A, 0.822; in that of A26U A59G, 0.181. As to A26G G56C, the self-cleavage was found to be 0.14.

A26G G56U: the self-cleavage was determined as 0.151. In the case of A26U A28U it was 0.257; in that of A26U A28C, 0.155; in that of A24U G57U, 0.188. Then A26C A30G, with 0.0971; and A26C A30U, with 0.165. Then G25U G32U, with 0.0897; and G25U G32C, with 0.187. Consider A26G C66G, for which the self-cleavage is 0.353. As to A24U C46A, the self-cleavage turned out to be 0.11. On to A24G U33A, for which the self-cleavage was 0.118.

Consider G25U A43G, for which the self-cleavage came to 0.183. Turning to G25U A43U, the self-cleavage stood at 0.217. Then G25U U55G, with 0.195; and G25U U55A, with 0.216. On to A24U A30G, for which the self-cleavage was found to be 0.164. With G25C U33G, the self-cleavage worked out at 0.197.

Take G25C U33C: the self-cleavage came to 0.319. Turning to G25A U55G, the self-cleavage was determined as 0.159. In the case of G25A G27A it was 0.148; in that of A26G C38A, 0.131. Then A26G G54A, with 0.605; and A24G U70A, with 0.746; and A26C G54A, with 0.511. Consider A26C G54U, for which the self-cleavage was 0.314. In the case of A26C U63G it was 0.0806; in that of A24U G56C, 0.14.

As for A26G A47G, the self-cleavage amounted to 0.161. In the case of G25A A44U it was 0.179; in that of G25C A47U, 0.0432. A26C A61C: the self-cleavage turned out to be 0.0459. Turning to A24U G32U, the self-cleavage amounted to 0.128. Then G25C U58A, with 0.308; and G25C U58C, with 0.559; and G25U A39C, with 0.336. Then A26C G29C, with 0.136; and A26C G29U, with 0.109. In the case of A26C G29A it was 0.149; in that of A26C A71G, 1.01.

Regarding A26U G32U, the self-cleavage was found to be 0.202. As to G25C C37G, the self-cleavage turned out to be 0.225. Then A26G U53G, with 0.682. Then A26U G51U, with 0.614; and A26U G51A, with 0.661. For A26U G51C, the self-cleavage was 0.447. Then A26C G32U, with 0.196.

Regarding G25C A41U, the self-cleavage came to 0.931.

Consider A26U A41C, for which the self-cleavage came to 0.776. Then A26C G56U, with 0.23. Then G25U G51A, with 0.613; and G25U G51U, with 0.671; and A26C C50U, with 0.306.

Take A24U A49C: the self-cleavage turned out to be 0.104. As to A24U A49U, the self-cleavage worked out at 0.216. Turning to A26C U55A, the self-cleavage stood at 0.194. Regarding G25U G42U, the self-cleavage was 0.183.

Take G25U G42C: the self-cleavage turned out to be 0.22.

In the case of A26C, the self-cleavage was determined as 0.708.

On to A26U, for which the self-cleavage is 0.683. For A26G, the self-cleavage was found to be 0.901. Take G25A A59U: the self-cleavage came to 0.21. Regarding G25A A59C, the self-cleavage was 0.196.

A26C U53C: the self-cleavage was 0.741. Then G25A C37U, with 0.494; and A26G U55G, with 0.153.

Consider A26G U55C, for which the self-cleavage is 0.206. In the case of G25U U53G it was 0.376; in that of G25U U53C, 0.689. In the case of A24U C38A it was 0.154; in that of G25A U62A, 0.121.

In the case of G25A U62C, the self-cleavage was found to be 0.224. In the case of A26C A31U it was 0.097; in that of A26C A31C, 0.0424; in that of A26C A31G, 0.445.

A26C A41C: the self-cleavage is 0.734. Then A26G U52C, with 0.822; and A26G U52G, with 0.721; and A24G G51C, with 0.829.

With A24G U63A, the self-cleavage came out at 0.231. Turning to G25A U53C, the self-cleavage came out at 0.659. G25A U53A: the self-cleavage was 0.472. With A26U A35C, the self-cleavage is 0.846.

On to A26U A35U, for which the self-cleavage was determined as 0.302. In the case of G25A A31C it was 0.128. Take A24G G42U: the self-cleavage came out at 0.289. A24G G42C: the self-cleavage is 0.275. For the variant A24G G42A, the self-cleavage was 0.111. As to A26C G51A, the self-cleavage amounted to 0.67. Turning to G25C A64U, the self-cleavage came out at 0.134.

Take G25U G69U: the self-cleavage turned out to be 0.165. In the case of G25U G69C, the self-cleavage stood at 0.0669. In the case of A26C C46G it was 0.106; in that of A26U A71G, 0.781. For the variant A24G C66G, the self-cleavage turned out to be 0.226.

Regarding A26G A39U, the self-cleavage is 0.407. In the case of A24U A36G it was 0.943; in that of A24G G29C, 0.174; in that of A24G G29U, 0.0932. Take A24U A61U: the self-cleavage turned out to be 0.187. G25U A64C: the self-cleavage worked out at 0.177.

Turning to G25C A35G, the self-cleavage is 0.578.

(Values after the RNAGym collection of RNA variant scans (doi:10.7554/elife.80360).)
